Experimental data reported in patent US9127035B2, “Compounds for use in the treatment of bacterial infection” (THE ROYAL INSTITUTION FOR THE ADVANCEMENT OF …, priority 2011, dated 2015).

Tests used:
Assay in all cases: PanK enzyme assay (Michaelis-Menten kinetics)
Type in all cases: biochemical, E. coli
Settings in all cases: other: transformation by PanK, 25° C., Tris-HCl pH 7.6, triplicate
[1] = substrate: [H][C@]1(O[C@H]2[C@H](O)[C@@H](O)[C@H](N)C[C@@H]2N)O[C@H](CNC(=O)CCSCCNC(=O)CCNC(=O)[C@H](O)C(C)(C)CO)[C@@H](O)[C@H](O)[C@H]1N
Description: (§1) PanK enzyme assay. The E. coli pantothenate kinase (PanK or coaA enzyme) was expressed and purified as previously described. Enzyme activity was measured as described in the literature [Strauss E, Begley T P J Biol Chem, 2002, 277:48205-48209]. This assay couples the production of ADP to the consumption of NADH through the activity of pyruvate kinase and lactic dehydrogenase. The decrease of NADH concentration was monitored at 340 nm. Reactions were performed at 25° C. in an Agilent 8453 UV-Vis spectrophotometer coupled to an Agilent 89090A Peltier temperature controller. Kinetic parameters were determined by fitting the rate data into the Michaelis-Menten equation using Prism 4.0 (GraphPad). Each reaction mixture (500 μL) contained ATP (1.5 mM), NADH (0.3 mM), phosphoenolpyruvate (0.5 mM), MgCl2 (10 mM), KCl (20 mM), pyruvate kinase (5 units), lactic dehydrogenase (5 units), and PanK (5 μg, 278 nM) in Tris-HCl buffer (50 mM, pH 7.6). The reaction was initiated by addition of the desired substrate (10-160 μM). All data points are from triplicate experiments.

[2] = substrate: [H][C@]1(O[C@H]2[C@H](O)[C@@H](O)[C@H](N)C[C@@H]2N)O[C@H](CNC(=O)CCCSCCNC(=O)CCNC(=O)[C@H](O)C(C)(C)CO)[C@@H](O)[C@H](O)[C@H]1N
Description: as §1

[3] = substrate: [H][C@]1(O[C@H]2[C@H](O)[C@@H](O)[C@H](N)C[C@@H]2N)O[C@H](CNC(=O)CCCCSCCNC(=O)CCNC(=O)[C@H](O)C(C)(C)CO)[C@@H](O)[C@H](O)[C@H]1N
Description: as §1

[4] = substrate: CC(C)(CO)[C@@H](O)C(=O)NCCC(=O)NCCSCCCCCC(=O)NC[C@H]1O[C@H](O[C@H]2[C@H](O)[C@@H](O)[C@H](N)C[C@@H]2N)[C@H](N)[C@@H](O)[C@@H]1O
Description: as §1

B1: E. coli pantothenate kinase (PanK or coaA enzyme) (Escherichia coli K-12) (protein)
chain: MSIKEQTLMTPYLQFDRNQWAALRDSVPMTLSEDEIARLKGINEDLSLEEVAEIYLPLSRLLNFYISSNLRRQAVLEQFLGTNGQRIPYIISIAGSVAVGKSTTARVLQALLSRWPEHRRVELITTDGFLHPNQVLKERGLMKKKGFPESYDMHRLVKFVSDLKSGVPNVTAPVYSHLIYDVIPDGDKTVVQPDILILEGLNVLQSGMDYPHDPHHVFVSDFVDFSIYVDAPEDLLQTWYINRFLKFREGAFTDPDSYFHNYAKLTKEEAIKTAMTLWKEINWLNLKQNILPTRERASLILTKSANHAVEEVRLRK
notes: made in house
Km [1]: 480 ± 160 µM | kcat [1]: 0.47 ± 0.05 s⁻¹ | kcat/Km [1]: 1000 ± 300 M⁻¹ s⁻¹ | Km [2]: 350 ± 80 µM | kcat [2]: 0.5 ± 0.05 s⁻¹ | kcat/Km [2]: 1400 ± 400 M⁻¹ s⁻¹ | Km [3]: 230 ± 69 µM | kcat [3]: 0.52 ± 0.08 s⁻¹ | kcat/Km [3]: 2300 ± 800 M⁻¹ s⁻¹ | Km [4]: 170 ± 50 µM
